In PMC6797610, “Functional Analysis of 3-Dehydroquinate Dehydratase/Shikimate Dehydrogenases Involved in Shikimate Pathway in Camellia sinensis” (Frontiers in Plant Science, 2019):

Experiments:
[1] = biological target: CsDQD/SDHb (Camellia sinensis, UniProt A0A3G3BK08); experiment: HPLC product quantification; format: biochemical; conditions: SA oxidation, 1 mM SA, 1 mM NADP+; BTP-HCl pH 7.5, 30°C, 30 min; very low activity, Km not determinable
[2] = biological target: CsDQD/SDHb (Camellia sinensis, UniProt A0A3G3BK08, G296T/D398N/I399R/D400T, form not given); experiment: HPLC product quantification; format: biochemical; conditions: MTCsDQD/SDHb; SA oxidation with NADP+; residue numbers after AtDQD/SDH
Chain of CsDQD/SDHb (Camellia sinensis, UniProt A0A3G3BK08, G296T/D398N/I399R/D400T, form not given) (A0A3G3BK08 entry or part of it G296T/D398N/I399R/D400T, form open): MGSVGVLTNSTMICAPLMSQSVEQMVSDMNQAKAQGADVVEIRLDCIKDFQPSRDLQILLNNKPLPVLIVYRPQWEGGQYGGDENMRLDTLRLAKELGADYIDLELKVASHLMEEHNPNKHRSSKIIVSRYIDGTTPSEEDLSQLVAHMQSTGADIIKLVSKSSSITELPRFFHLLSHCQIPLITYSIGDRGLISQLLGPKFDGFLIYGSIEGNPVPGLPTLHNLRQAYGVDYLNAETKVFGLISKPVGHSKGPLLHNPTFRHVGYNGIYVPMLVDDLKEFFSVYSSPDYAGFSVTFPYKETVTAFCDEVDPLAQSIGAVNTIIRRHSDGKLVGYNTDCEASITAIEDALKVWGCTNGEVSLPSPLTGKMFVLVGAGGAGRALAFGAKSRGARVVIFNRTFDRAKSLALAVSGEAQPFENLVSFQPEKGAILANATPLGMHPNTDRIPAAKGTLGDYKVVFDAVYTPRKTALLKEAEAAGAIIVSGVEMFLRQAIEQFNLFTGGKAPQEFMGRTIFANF

[3] = biological target: T1, CsSDHa (Camellia sinensis, UniProt A0A3G3BK14); experiment: HPLC product quantification; format: biochemical; conditions: 1 mM each, BTP-HCl pH 7.5, 30°C
T1 construct: SDH unit only of CsDQD/SDHa (Ile-328 to Gly-588 in AtSDH numbering), MBP fusion from pMAL-c2x, E. coli

[4] = substrate: NC(=O)C1=CN([C@@H]2O[C@H](COP(=O)(O)OP(=O)(O)OC[C@H]3O[C@@H](n4cnc5c(N)ncnc54)[C@H](OP(=O)(O)O)[C@@H]3O)[C@@H](O)[C@H]2O)C=CC1; experiment: HPLC product assay, Michaelis-Menten; format: biochemical, Camellia sinensis; conditions: 3-DHS reduction to SA, co-substrate 3-DHS 1.5 mM, BTP-HCl pH 8.5, 30°C, 3 min
Excerpt: (§1) HPLC product assay, Michaelis-Menten on CsDQD/SDHd

[5] = substrate: NC(=O)c1ccc[n+]([C@@H]2O[C@H](COP(=O)(O)OP(=O)(O)OC[C@H]3O[C@@H](n4cnc5c(N)ncnc54)[C@H](OP(=O)(O)O)[C@@H]3O)[C@@H](O)[C@H]2O)c1; experiment: HPLC product assay, Michaelis-Menten; format: biochemical, Camellia sinensis; conditions: SA oxidation to 3-DHS, co-substrate SA 1.5 mM, BTP-HCl pH 8.5, 30°C, 3 min
Excerpt: as §1

[6] = substrate: O=C(O)C1=C[C@@H](O)[C@@H](O)[C@H](O)C1; experiment: HPLC product assay, Michaelis-Menten; format: biochemical, Camellia sinensis; conditions: SA oxidation to 3-DHS, co-substrate NADP+ 1.5 mM, BTP-HCl pH 8.5, 30°C, 3 min
Excerpt: as §1

[7] = substrate: O=C(O)C1=CC(=O)[C@@H](O)[C@H](O)C1; experiment: HPLC product assay, Michaelis-Menten; format: biochemical, Camellia sinensis; conditions: 3-DHS reduction to SA, co-substrate NADPH 1.5 mM, BTP-HCl pH 8.5, 30°C, 3 min
Excerpt: as §1

[8] = substrate: NC(=O)C1=CN([C@@H]2O[C@H](COP(=O)(O)OP(=O)(O)OC[C@H]3O[C@@H](n4cnc5c(N)ncnc54)[C@H](OP(=O)(O)O)[C@@H]3O)[C@@H](O)[C@H]2O)C=CC1; experiment: HPLC product assay, Michaelis-Menten; format: biochemical, Camellia sinensis; conditions: 3-DHS reduction to SA, co-substrate 3-DHS 1.5 mM, BTP-HCl pH 8.5, 30°C, 3 min; remark: listed apart in the source
Excerpt: (§2) HPLC product assay, Michaelis-Menten on CsDQD/SDHa

[9] = substrate: NC(=O)c1ccc[n+]([C@@H]2O[C@H](COP(=O)(O)OP(=O)(O)OC[C@H]3O[C@@H](n4cnc5c(N)ncnc54)[C@H](OP(=O)(O)O)[C@@H]3O)[C@@H](O)[C@H]2O)c1; experiment: HPLC product assay, Michaelis-Menten; format: biochemical, Camellia sinensis; conditions: SA oxidation to 3-DHS, co-substrate SA 1.5 mM, BTP-HCl pH 8.5, 30°C, 3 min; remark: listed apart in the source
Excerpt: as §2

[10] = substrate: O=C(O)C1=C[C@@H](O)[C@@H](O)[C@H](O)C1; experiment: HPLC product assay, Michaelis-Menten; format: biochemical, Camellia sinensis; conditions: SA oxidation to 3-DHS, co-substrate NADP+ (per table; b27 pairs the cofactors the other way round), 1.5 mM, BTP-HCl pH 8.5, 30°C, 3 min
Excerpt: as §2

[11] = substrate: O=C(O)C1=CC(=O)[C@@H](O)[C@H](O)C1; experiment: HPLC product assay, Michaelis-Menten; format: biochemical, Camellia sinensis; conditions: 3-DHS reduction to SA, co-substrate NADPH (per table; b27 pairs the cofactors the other way round), 1.5 mM, BTP-HCl pH 8.5, 30°C, 3 min
Excerpt: as §2

[12] = substrate: NC(=O)C1=CN([C@@H]2O[C@H](COP(=O)(O)OP(=O)(O)OC[C@H]3O[C@@H](n4cnc5c(N)ncnc54)[C@H](OP(=O)(O)O)[C@@H]3O)[C@@H](O)[C@H]2O)C=CC1; experiment: HPLC product assay, Michaelis-Menten; format: biochemical, Camellia sinensis; conditions: 3-DHS reduction to SA, co-substrate 3-DHS 1.5 mM, BTP-HCl pH 8.5, 30°C, 3 min; remark: listed apart in the source
Excerpt: (§3) HPLC product assay, Michaelis-Menten on CsDQD/SDHc

[13] = substrate: NC(=O)c1ccc[n+]([C@@H]2O[C@H](COP(=O)(O)OP(=O)(O)OC[C@H]3O[C@@H](n4cnc5c(N)ncnc54)[C@H](OP(=O)(O)O)[C@@H]3O)[C@@H](O)[C@H]2O)c1; experiment: HPLC product assay, Michaelis-Menten; format: biochemical, Camellia sinensis; conditions: SA oxidation to 3-DHS, co-substrate SA 1.5 mM, BTP-HCl pH 8.5, 30°C, 3 min; remark: listed apart in the source
Excerpt: as §3

[14] = substrate: O=C(O)C1=C[C@@H](O)[C@@H](O)[C@H](O)C1; experiment: HPLC product assay, Michaelis-Menten; format: biochemical, Camellia sinensis; conditions: SA oxidation to 3-DHS, co-substrate NADP+ 1.5 mM, BTP-HCl pH 8.5, 30°C, 3 min; remark: listed apart in the source
Excerpt: as §3

[15] = substrate: O=C(O)C1=CC(=O)[C@@H](O)[C@H](O)C1; experiment: HPLC product assay, Michaelis-Menten; format: biochemical, Camellia sinensis; conditions: 3-DHS reduction to SA, co-substrate NADPH 1.5 mM, BTP-HCl pH 8.5, 30°C, 3 min; remark: listed apart in the source
Excerpt: as §3

Chain of CsDQD/SDHb (Camellia sinensis, UniProt A0A3G3BK08) (A0A3G3BK08 entry or part of it): as the sequence (A0A3G3BK08 entry or part of it G296T/D398N/I399R/D400T, form open) above, with T296G, N398D, R399I, T400D counted along it

Molecule: O=C(O)C1=C[C@@H](O)[C@@H](O)[C@H](O)C1 [SA]
- HPLC product quantification [1]: CsDQD/SDHb exhibited the lowest SA oxidation activity but had no 3-DHS reduction activity
- HPLC product quantification [2]: six times higher oxidation activity of SA than CsDQD/SDHb
- HPLC product quantification ([3]; SA oxidation with NADP+): a lower enzymatic activity for NADP^+-dependent oxidation of SA

Molecule: O=C(O)C1=CC(=O)[C@@H](O)[C@H](O)C1 [3-DHS]
- HPLC product quantification ([3]; 3-DHS reduction with NADPH): CsSDHa recombinant protein had an almost identical enzymatic activity for NADPH-dependent reduction of 3-DHS

B1: CsDQD/SDHd (Camellia sinensis) (protein)
chain: MTLSSIPISEGGRRNPTMICAPVMAENVDQMLLMMRKAKELGADLVEVRIDYLKNFSPHHDLQILIKQCPLPTLITYRPTWEGGQFDGDETRRQAALRQAVELGADYIDIELKVADEFYKLIQGKKPEKVKIIVSSHNYENTPSAEEIGNLAARIQATGADIVKIATTAQDITDSARIFQLLAHSQVPTIGIVMGERGLMSRILCAKFGGFLTFGALESGIVSAPGQPTLKDLLELYNFRQIGPDTKVHGVIGNPIGHSKSPHLYNTAFRSAGFNGIYLPLLVDSVANFFNTYSSPDFVGYSYTIPHKEAGLKCCDEVDPIAEAIGAISCMVRKPSDGKLIGYNVDYLGAIGAIEEALGGSNGSSNGAVSPLASKLFVVIGAGGAGKALAYGGKEKGARVVVANRTYEKAKELASKVDGEAITLAELDDFHPEDGMILANTTSVGMKPKTDATPISKKALNRYSLVFGAIYTPKWTRLLQEAQDSGAKVVFGTEMFINQAFVQFERFTGMPAPKELIRETLAKNT
- Km [4]: 248.798 µM
- kcat/Km [4]: 197 M⁻¹ s⁻¹
- Km [5]: 46.342 µM
- kcat/Km [5]: 128 M⁻¹ s⁻¹
- Km [6]: 610.643 µM
- kcat/Km [6]: 138 M⁻¹ s⁻¹
- Km [7]: 465.971 µM
- kcat/Km [7]: 99.5 M⁻¹ s⁻¹

B2: CsDQD/SDHa (Camellia sinensis) (protein)
chain: MELVAPVVAGCGVKMESEGMRKNSTLICVPLMADSVDQMLIYMNKAKLNGADLVEVRLDSLKSFNPPLDIETLIKRCPLPTLFTYRPKWEGGMYDGDESSRLEALQLAMELGADYIDVELQVIHEFNSSMHGKKPAKCKLIVSSHNYENTPSVEDLGNLVVKIQATGADIVKIATTALDITDAARVFQITVHSQVRGVPIIAMVMGERGLMARILCPKFGGYLTFGTLESGIVSAPGQPTMDDLVNLYNIRQIGPDTKVFGIIGKPVGHSKSPILYNEAFKKVGFNGVYLHLLVDDVANFLQTYSSTDFAGFSCTIPHKEAALKCCDEVDPVAKSIGAVNCIVRKSDGKFFGCNTDYVGAITAIEDALGGLQHVNGMVVSPLSGKLFVVIGAGGAGKALAYGAKAKGAKVVIANRTYERAKEIADTIGGDALSLADLSNFHPEDGMILANTTSIGMQPKVDETPVPKQALKSYALVFDAVYTPKITRLLREAEESGAKIVTGVEMFIGQAYEQFERFTGLPAPKELFGKIMAKY
- Km [8]: 270.306 µM
- kcat/Km [8]: 746 M⁻¹ s⁻¹
- Km [9]: 138.031 µM
- kcat/Km [9]: 845 M⁻¹ s⁻¹
- Km [10]: 272.782 µM
- kcat/Km [10]: 562 M⁻¹ s⁻¹
- Km [11]: 286.576 µM
- kcat/Km [11]: 1410 M⁻¹ s⁻¹

B3: CsDQD/SDHc (Camellia sinensis) (protein)
chain: MASGSFSFATSDVQTSSSGVRSGPTLLCTPLIGTTVDQMLIDMRKAKEIGADMVEIRLDCLREFNPRPDLQILIKQSPLPTLVTYRPIWESGQYEGDENKRQDALRLAMELGADYIDVELQVAQEFNNSISAKKPEKFKVIVSSQNFHSTPSAEAIGNLVARIQATGADIVKIVTTALDITDVARIFQITVHSQIPMIGIAMGERGLISRLLSPKFNGYLTYAALEAGAISAPGQPTVKDLLDLYNFRLIRPDTKVYGIIGKPVGHSKSPLLFNESFKKVGLNSVYVHLLVDDVKKFFSTYSSVDFAGFSCTIPHKEVALECMDEIDQIAKKIGAINNIVRRPDGTLKSYNTDYIGAISAIEDGLRESNGSSPATSSPLAGKLFVVLGAGGAGKSLAYGAQQKGARVVVANRTFERAKELAEKVGGKALTLEEVNDFHPEEGMILANTTSVGMKPNIDLTPISKEALKHYDLVFDAIYTPKDTRLLREARECGKIIVYGTEMLIRQGFEQYKNFTGLQAPEELFRELMSRHA
- Km [12]: 267.244 µM
- kcat/Km [12]: 193 M⁻¹ s⁻¹
- Km [13]: 114.553 µM
- kcat/Km [13]: 372 M⁻¹ s⁻¹
- Km [14]: 199.653 µM
- kcat/Km [14]: 536 M⁻¹ s⁻¹
- Km [15]: 330.933 µM
- kcat/Km [15]: 507 M⁻¹ s⁻¹
